Laboratory results reported in patent US20160137708A1 (Amgen, published 2016).
Like-named read-outs stand apart in the source and are kept apart here.

T1: human IL-1Rrp2 (IL-1R-related protein 2) (human, UniProt Q9HB29 20-575)
T1 sequence (looked up): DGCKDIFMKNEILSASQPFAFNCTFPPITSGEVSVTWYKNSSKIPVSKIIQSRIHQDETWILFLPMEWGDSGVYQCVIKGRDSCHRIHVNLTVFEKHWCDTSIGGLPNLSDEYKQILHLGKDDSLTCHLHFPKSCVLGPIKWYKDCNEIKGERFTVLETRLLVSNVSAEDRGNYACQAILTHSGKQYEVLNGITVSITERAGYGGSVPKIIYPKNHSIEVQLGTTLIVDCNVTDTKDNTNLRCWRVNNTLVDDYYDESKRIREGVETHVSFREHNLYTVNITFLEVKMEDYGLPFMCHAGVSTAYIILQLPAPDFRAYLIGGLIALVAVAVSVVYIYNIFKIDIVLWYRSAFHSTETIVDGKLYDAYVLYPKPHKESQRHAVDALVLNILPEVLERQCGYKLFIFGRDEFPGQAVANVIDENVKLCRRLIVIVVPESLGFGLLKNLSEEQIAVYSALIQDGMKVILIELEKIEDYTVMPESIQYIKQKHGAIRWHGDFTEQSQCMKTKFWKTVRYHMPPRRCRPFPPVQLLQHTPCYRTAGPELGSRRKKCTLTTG


Key:
Assay in all cases: cell-based or functional assay
[1] = target: T1, human IL-1Rrp2 (IL-1R-related protein 2)
[2] = target: T1, human IL-1Rrp2 (IL-1R-related protein 2); remark: listed apart in the source
[3] = target: T1, human IL-1Rrp2 (IL-1R-related protein 2); remark: listed apart in the source

| Binder | EC50, IL-8 ELISA of supernatants of Jurkat T-REx cells expressing human IL-1Rrp2 [1] [ng/mL] | EC50, luciferase reporter assay in IL-1Rrp2 transfected Jurkat cells [2] [ng/mL] | EC50, IL-8 ELISA of supernatants of Jurkat T-REx cells expressing human IL-1Rrp2 [3] [µg/mL] | EC50, luciferase reporter assay in IL-1Rrp2 transfected Jurkat cells [3] [ng/mL] |
| --- | --- | --- | --- | --- |
| HuIL-1F6I7/FpH (ligand) MIDTPQRGSIQDINHRVWVLQDQTLIAVPRKDRMSPVTIALISCRHVETLEKDRGNPIYLGLNGLNLCLMCAKVGDQPTLQLKEKDIMDLYNQPEPVKSFLFYHSQSGRNSTFESVAFPGWFIAVSSEGGCPLILTQELGKANTTDFGLTMLFDYKDDDDKHHHHHH | 60 | 2.8 | – | – |
| HuIL-1F8WT (untagged full length wild type human IL-1F8) (ligand) MNPQREAAPKSYAIRDSRQMVWVLSGNSLIAAPLSRSIKPVTLHLIACRDTEFSDKEKGNMVYLGIKGKDLCLFCAEIQGKPTLQLKEKNIMDLYVEKKAQKPFLFFHNKEGSTSVFQSVSYPGWFIATSTTSGQPIFLTKERGITNNTNFYLDSVE | – | – | 10.5 | > 193 |
| HuIL-1F6K6 (ligand) KIDTPQQGSIQDINHRVWVLQDQTLIAVPRKDRMSPVTIALISCRHVETLEKDRGNPIYLGLNGLNLCLMCAKVGDQPTLQLKEKDIMDLYNQPEPVKSFLFYHSQSGRNSTFESVAFPGWFIAVSSEGGCPLILTQELGKANTTDFGLTMLF | 0.164 | – | – | – |
| HuIL-1F6WT/FpH (ligand) MEKALKIDTPQQGSIQDINHRVWVLQDQTLIAVPRKDRMSPVTIALISCRHVETLEKDRGNPIYLGLNGLNLCLMCAKVGDQPTLQLKEKDIMDLYNQPEPVKSFLFYHSQSGRNSTFESVAFPGWFIAVSSEGGCPLILTQELGKANTTDFGLTMLFDYKDDDDKHHHHHH | – | – | – | > 136 |
| HuIL-1F9S18/FpH (ligand) SMCKPITGTINDLNQQVWTLQGQNLVAVPRSDSVTPVTVAVITCKYPEALEQGRGDPIYLGIQNPEMCLYCEKVGEQPTLQLKEQKIMDLYGQPEPVKPFLFYRAKTGRTSTLESVAFPDWFIASSKRDQPIILTSELGKSYNTAFELNINDDYKDDDDKHHHHHH | 17 | 1 | – | – |
| HuIL-1F9M19/FpH (ligand) MMCKPITGTINDLNQQVWTLQGQNLVAVPRSDSVTPVTVAVITCKYPEALEQGRGDPIYLGIQNPEMCLYCEKVGEQPTLQLKEQKIMDLYGQPEPVKPFLFYRAKTGRTSTLESVAFPDWFIASSKRDQPIILTSELGKSYNTAFELNINDDYKDDDDKHHHHHH | – | 1.1 | – | – |
| HuIL-1F8WT/FpH (ligand) MNPQREAAPKSYAIRDSRQMVWVLSGNSLIAAPLSRSIKPVTLHLIACRDTEFSDKEKGNMVYLGIKGKDLCLFCAEIQGKPTLQLKEKNIMDLYVEKKAQKPFLFFHNKEGSTSVFQSVSYPGWFIATSTTSGQPIFLTKERGITNNTNFYLDSVEDYKDDDDKHHHHHH | – | – | – | > 258 |
| HuIL-1F8E6/FpH (ligand) MEAAPKSYAIRDSRQMVWVLSGNSLIAAPLSRSIKPVTLHLIACRDTEFSDKEKGNMVYLGIKGKDLCLFCAEIQGKPTLQLKEKNIMDLYVEKKAQKPFLFFHNKEGSTSVFQSVSYPGWFIATSTTSGQPIFLTKERGITNNTNFYLDSVEDYKDDDDKHHHHHH | 2 | 0.2 | – | – |
| HuIL-1F9WT (untagged full length wild type human IL-1F9) (ligand) MRGTPGDADGGGRAVYQSMCKPITGTINDLNQQVWTLQGQNLVAVPRSDSVTPVTVAVITCKYPEALEQGRGDPIYLGIQNPEMCLYCEKVGEQPTLQLKEQKIMDLYGQPEPVKPFLFYRAKTGRTSTLESVAFPDWFIASSKRDQPIILTSELGKSYNTAFELNIND | – | – | 4.07 | > 544 |
| HuIL-1F9S18 (ligand) SMCKPITGTINDLNQQVWTLQGQNLVAVPRSDSVTPVTVAVITCKYPEALEQGRGDPIYLGIQNPEMCLYCEKVGEQPTLQLKEQKIMDLYGQPEPVKPFLFYRAKTGRTSTLESVAFPDWFIASSKRDQPIILTSELGKSYNTAFELNIND | 1 | – | – | – |
| HuIL-1F6 WT (untagged full length wild type human IL-1F6) (ligand) MEKALKIDTPQQGSIQDINHRVWVLQDQTLIAVPRKDRMSPVTIALISCRHVETLEKDRGNPIYLGLNGLNLCLMCAKVGDQPTLQLKEKDIMDLYNQPEPVKSFLFYHSQSGRNSTFESVAFPGWFIAVSSEGGCPLILTQELGKANTTDFGLTMLF | – | – | 12.9 | > 212 |
| HuIL-1F8R5 (ligand) REAAPKSYAIRDSRQMVWVLSGNSLIAAPLSRSIKPVTLHLIACRDTEFSDKEKGNMVYLGIKGKDLCLFCAEIQGKPTLQLKEKNIMDLYVEKKAQKPFLFFHNKEGSTSVFQSVSYPGWFIATSTTSGQPIFLTKERGITNNTNFYLDSVE | 0.129 | – | – | – |
| HuIL-1F9WT/FpH (ligand) MRGTPGDADGGGRAVYQSMCKPITGTINDLNQQVWTLQGQNLVAVPRSDSVTPVTVAVITCKYPEALEQGRGDPIYLGIQNPEMCLYCEKVGEQPTLQLKEQKIMDLYGQPEPVKPFLFYRAKTGRTSTLESVAFPDWFIASSKRDQPIILTSELGKSYNTAFELNINDDYKDDDDKHHHHHH | – | – | – | > 332 |
